{"source": "patent US20100234450", "about": "“Molecular targeting agents” (published 2010)", "key": {"[1]": {"target": "T1, PSMA (prostate-specific membrane antigen) (Homo sapiens, UniProt Q04609 Q04609:1-750)", "T1 sequence (Q04609 whole entry, one chain of several)": "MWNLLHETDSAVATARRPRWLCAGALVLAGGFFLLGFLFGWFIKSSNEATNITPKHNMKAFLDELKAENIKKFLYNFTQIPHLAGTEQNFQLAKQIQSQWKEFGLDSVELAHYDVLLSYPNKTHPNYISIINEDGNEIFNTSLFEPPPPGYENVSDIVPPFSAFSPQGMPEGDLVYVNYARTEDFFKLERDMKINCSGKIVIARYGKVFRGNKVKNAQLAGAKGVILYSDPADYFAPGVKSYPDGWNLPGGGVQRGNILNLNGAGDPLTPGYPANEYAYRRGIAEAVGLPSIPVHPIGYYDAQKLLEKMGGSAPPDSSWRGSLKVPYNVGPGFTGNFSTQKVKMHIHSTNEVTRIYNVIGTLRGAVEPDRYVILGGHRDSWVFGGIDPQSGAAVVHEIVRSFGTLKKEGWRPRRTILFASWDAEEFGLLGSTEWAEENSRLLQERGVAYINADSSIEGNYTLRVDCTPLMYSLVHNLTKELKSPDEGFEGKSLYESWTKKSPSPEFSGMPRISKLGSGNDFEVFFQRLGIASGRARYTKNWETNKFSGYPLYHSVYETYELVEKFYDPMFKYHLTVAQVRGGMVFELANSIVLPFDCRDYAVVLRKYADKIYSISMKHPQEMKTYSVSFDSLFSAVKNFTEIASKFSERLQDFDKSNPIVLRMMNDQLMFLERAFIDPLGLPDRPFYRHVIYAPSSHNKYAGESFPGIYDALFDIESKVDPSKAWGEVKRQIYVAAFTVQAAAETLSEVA", "test": "cell binding to PSMA-positive 22Rv1(1.7) cells", "settings": "tags: none, endogenous on 22Rv1(1.7) and LNCaP prostate cancer cells, chain copies: 2"}, "[2]": {"target": "T1, PSMA (prostate-specific membrane …)", "test": "cell binding to PSMA-positive 22Rv1(1.7) cells; Bmax much lower on PSMA-negative 22Rv1(wmr) cells", "settings": "tags: none; endogenous on 22Rv1(1.7) and LNCaP prostate cancer cells; chain copies: 2; label: 111In"}}, "data": [{"binder": "GGGAGGACGAUGCGGAUCAGCCAUGUUUACGUCACUCCU (ssRNA)", "note": "[A10-3.2 (32P)]", "values": [{"measurement": "Kd", "setting": "[1]; label: 5'-32P", "value": 106, "unit": "nM"}]}, {"binder": "GGGAGGACGAUGCGGAUCAGCCAUGUUUACGUCACUCCU (ssRNA, 5'-NOTA chelator via linker)", "note": "[64Cu-NOTA-A10-3.2]", "values": [{"measurement": "Kd", "setting": "[1]; label: 64Cu", "value": 131, "unit": "nM"}]}, {"binder": "GGGAGGACGAUGCGGAUCAGCCAUGUUUACGUCACUCCU (ssRNA, 5'-DOTA chelator via linker)", "note": "[111In-DOTA-A10-3.2]", "values": [{"measurement": "Kd", "setting": "[2]", "value": 119, "unit": "nM"}]}]}
